Consider one substance from PMC9126950.

The target in this test is VHH-72-C13 (llama). In words: electrochemical titration (differential pulse voltammetry).

Values joined by “and” are separate entries in the source; they are usually repeats but may differ in a detail not shown here. Equal entries are not always repeated.

Chain of VHH-72-C13 (llama) (VHH, as listed by the source): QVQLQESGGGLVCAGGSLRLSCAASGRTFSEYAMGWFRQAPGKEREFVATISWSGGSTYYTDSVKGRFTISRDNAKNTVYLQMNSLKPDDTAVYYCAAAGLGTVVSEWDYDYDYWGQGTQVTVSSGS

On to “SARS-CoV-2 spike receptor binding domain (RBD), recombinant (from UniProt P0DTC2 319-541) (domain or fragment)”, for which the half saturation point (Langmuir isotherm) is 3.7 nM and 7.5 nM.
